Test system: IL-18
Experiment: IL-18 levels in small intestine and serum after oral rhLF or bLF (cytokine ELISA)
Type: in vivo, mice
Description: Recombinant human lactoferrin and bovine lactoferrin were orally administered to mice, and the production of IL-18 in the small intestine was measured.
Mice were treated for three days daily with 65 mg/kg/day of rhLF, 300 mg/kg/day of rhLF or 300 mg/kg/day of bLF. For a control, mice were only administered the pharmaceutical carrier. Twenty-four hours following administration of the LF or control for 3 days, animals were weighed and blood and serum were collected. Serum was used for cytokine ELISA assays.
Also, at these time points, animals were sacrificed and the small intestinal tissue was removed for further analysis. Small intestinal epithelium was homogenized using a lysis buffer consisting of PBS, 1% Nonidet P-40, 0.5% sodium deoxycholate, and 0.1% sodium dodecyl sulphate containing 10 μg/ml PhenylMetheylsulfonyl fluoride. Homogenate was centrifuged at 15,000 rpm for 10 minutes and the supernatant stored at −80 C. till it was tested for IL-18 levels.

[1] = oral 300 mg/kg/day for three days, 24 h after last dose
[2] = oral, rhLF at both doses, bLF 300 mg/kg/day

B1: bovine lactoferrin (protein, UniProt P24627 20-708, looked up)
Lactotransferrin: APRKNVRWCTISQPEWFKCRRWQWRMKKLGAPSITCVRRAFALECIRAIAEKKADAVTLDGGMVFEAGRDPYKLRPVAAEIYGTKESPQTHYYAVAVVKKGSNFQLDQLQGRKSCHTGLGRSAGWIIPMGILRPYLSWTESLEPLQGAVAKFFSASCVPCIDRQAYPNLCQLCKGEGENQCACSSREPYFGYSGAFKCLQDGAGDVAFVKETTVFENLPEKADRDQYELLCLNNSRAPVDAFKECHLAQVPSHAVVARSVDGKEDLIWKLLSKAQEKFGKNKSRSFQLFGSPPGQRDLLFKDSALGFLRIPSKVDSALYLGSRYLTTLKNLRETAEEVKARYTRVVWCAVGPEEQKKCQQWSQQSGQNVTCATASTTDDCIVLVLKGEADALNLDGGYIYTAGKCGLVPVLAENRKSSKHSSLDCVLRPTEGYLAVAVVKKANEGLTWNSLKDKKSCHTAVDRTAGWNIPMGLIVNQTGSCAFDEFFSQSCAPGADPKSRLCALCAGDDQGLDKCVPNSKEKYYGYTGAFRCLAEDVGDVAFVKNDTVWENTNGESTADWAKNLNREDFRLLCLDGTRKPVTEAQSCHLAVAPNHAVVSRSDRAAHVKQVLLHQQALFGKNGKNCPDKFCLFKSETKNLLFNDNTECLAKLGGRPTYEEYLGTEYVTAIANLKKCSTSPLLEACAFLTR
Oral 300 mg/kg
  IL-18 Intestinal Extract % Increase Over Control: 373%
  IL-18 Serum % Increase Over Control: −5%
[1]
  IL-18 Intestinal Extract: 4,515 pg
  IL-18 Serum: 134 pg
[2]
  effect on amount of IL-18 in the intestinal extract: lesser increase
  effect on amount of IL-18 in the serum: did not increase

From patent publication US7901879B2, “Lactoferrin in the treatment of malignant neoplasms and other hyperproliferative diseases” (Agennix Incorporated, priority 2002, dated 2011)
